Results taken from article PMC5859253.

What was measured:
Experiment in all cases: EMSA
Settings in all cases: HilD/H-NS EMSA: 10 mM Tris-HCl pH 8, 50 mM KCl, 1 mM DTT, 0.5 mM EDTA, 5% glycerol, 10 ug/ml BSA, ~100 ng DNA, RT 20 min; PhoP EMSA: 20 mM Tris-HCl pH 7.4 …
PhoP-H6 (phosphorylated) = system: PhoP-H6 (phosphorylated)
[1] = system: H-NS-FH (H-NS-3XFLAG-6XHis) (Escherichia coli EPEC E2348/69)
[2] = system: MBP-HilD (Salmonella enterica serovar Typhimurium SL1344?)

Substance | binding (PhoP-H6 (phosphorylated)) | binding [1] | binding [2]
ges promoter | > 6 µM | – | –
grhD1 promoter (PhoP EMSA) | 3 µM | – | –
grhD1 upstream region (HilD/H-NS EMSA) | – | 0.5 µM | > 1 µM
orgB promoter | 3 µM | – | –
sigD regulatory region | – | > 1 µM | > 1 µM
ssrAB regulatory region | – | 0.25 µM | –
